Target: Aspergillus terreus LovB: Lovastatin nonaketide synthase

B1: Aspergillus terreus LovG: Esterase (protein)
chain: HHHHHHMRYQASPALAKAPRALLCIHGAGCSPAIFRVQLSKLRAALREDFEFVYVTAPFPSSAGPGILPVFADLGPYYSWFESSSGNNNNGPSVGERLAAVHDPIRRTIVDWQTQHPHIPIVGAIGFSEGALVTTLLLWQQQMGRLPWLPRMSVAMLICPWYQDEASQYMRNEVMENHDDDHDSKDTEWQEELVIRIPTLHLQGRDDFALAGSKMLVARHFSPREAQVLEFAGQHQFPNRPRDVLEVINRFRKLCVTVQTLE
- offloaded aberrant products 8-10 from LovB in vitro in the absence of LovC (HPLC at 330 nm, LC-MS): Upon addition of LovG at equimolar concentration to LovB, the in vitro assay mixture turned significantly more yellow and the extract contained high amounts of offloaded products 8-10, in addition to 6 and 7
- turnover rate of dihydromonacolin L acid (2), in vitro with equimolar (10 µM) LovB, LovC and LovG: the turnover rate of dihydromonacolin L acid (2) was estimated to be ˜0.12 hour^-1
